Experimental data from PMC5987543.

Biological target: α-synuclein, P37840
Assay: SPR; Biacore X100; monomeric α-syn immobilised on a streptavidin-coated chip; S100A9 injected at increasing concentrations in a single cycle; HBS-P+ (10 mM HEPES, 150 mM NaCl, 0.001% P20), pH 7.4, 25 °C; steady-state fit Rc = C*Rmax/(Kd + C); apparent; three repeats
Conditions: remark: other sources report otherwise

Kd: 5 µM
B1: S100A9, P06702 1-114 (natural protein)
chain: MTCKMSQLERNIETIINTFHQYSVKLGHPDTLNQGEFKELVRKDLQNFLKKENKNEKVIEHIMEDLDTNADKQLSFEEFIMLMARLTWASHEKMHEGDEGPGHHHKPGLGEGTP
